Data taken from FireProtDB (doi:10.1073/pnas.0711253105).
Where “and” joins values, the source holds several entries; their conditions need not be identical. Identical values can stand only once.

conditions: Meleagris gallopavo; pH 8; Thermal; Activity; Tris 20 mM; NaCl 0.4 M; structure 2VT4

Beta-1 adrenergic receptor R68S|M90V|V230A|F327A|A334L, P07700 R68S M90V V230A F327A A334L, sequence (P07700 whole entry R68S/M90V/V230A/F327A/A334L): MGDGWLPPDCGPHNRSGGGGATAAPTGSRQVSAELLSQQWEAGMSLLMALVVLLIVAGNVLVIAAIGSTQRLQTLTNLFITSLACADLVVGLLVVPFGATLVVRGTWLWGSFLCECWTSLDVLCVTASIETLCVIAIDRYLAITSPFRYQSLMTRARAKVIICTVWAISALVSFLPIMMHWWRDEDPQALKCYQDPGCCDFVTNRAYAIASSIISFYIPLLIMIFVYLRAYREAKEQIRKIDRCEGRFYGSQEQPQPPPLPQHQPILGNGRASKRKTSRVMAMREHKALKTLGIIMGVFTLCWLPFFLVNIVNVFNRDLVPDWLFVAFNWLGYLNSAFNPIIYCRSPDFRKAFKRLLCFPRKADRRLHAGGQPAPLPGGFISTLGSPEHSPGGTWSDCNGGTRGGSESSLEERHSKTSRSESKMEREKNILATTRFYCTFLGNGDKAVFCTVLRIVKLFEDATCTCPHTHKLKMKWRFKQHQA
Beta-1 adrenergic receptor G67A|G98A, P07700 G67A G98A, sequence (P07700 whole entry G67A/G98A): as the sequence (P07700 whole entry R68S/M90V/V230A/F327A/A334L) above, with G67A, S68R, V90M, G98A, A230V, A327F, L334A counted along it
Beta-1 adrenergic receptor G67A|G98A|V230A, P07700 G67A G98A V230A, sequence (P07700 whole entry G67A/G98A/V230A): as the sequence (P07700 whole entry R68S/M90V/V230A/F327A/A334L) above, with G67A, S68R, V90M, G98A, A327F, L334A counted along it
Beta-1 adrenergic receptor R68S|Y227A|A234L|A282L, P07700 R68S Y227A A234L A282L, sequence (P07700 whole entry R68S/Y227A/A234L/A282L): as the sequence (P07700 whole entry R68S/M90V/V230A/F327A/A334L) above, with V90M, Y227A, A230V, A234L, A282L, A327F, L334A counted along it
Beta-1 adrenergic receptor G67A|G98A|V230A|D322A, P07700 G67A G98A V230A D322A, sequence (P07700 whole entry G67A/G98A/V230A/D322A): as the sequence (P07700 whole entry R68S/M90V/V230A/F327A/A334L) above, with G67A, S68R, V90M, G98A, D322A, A327F, L334A counted along it
Beta-1 adrenergic receptor R68S|Y227A|A234L|A334L, P07700 R68S Y227A A234L A334L, sequence (P07700 whole entry R68S/Y227A/A234L/A334L): as the sequence (P07700 whole entry R68S/M90V/V230A/F327A/A334L) above, with V90M, Y227A, A230V, A234L, A327F counted along it
Beta-1 adrenergic receptor R68S|M90V|Y227A|V230A|F327A|F338M, P07700 R68S M90V Y227A V230A F327A F338M, sequence (P07700 whole entry R68S/M90V/Y227A/V230A/F327A/F338M): as the sequence (P07700 whole entry R68S/M90V/V230A/F327A/A334L) above, with Y227A, L334A, F338M counted along it
Beta-1 adrenergic receptor M90V|I129V, P07700 M90V I129V, sequence (P07700 whole entry M90V/I129V): as the sequence (P07700 whole entry R68S/M90V/V230A/F327A/A334L) above, with S68R, I129V, A230V, A327F, L334A counted along it
Beta-1 adrenergic receptor G98A|D322A, P07700 G98A D322A, sequence (P07700 whole entry G98A/D322A): as the sequence (P07700 whole entry R68S/M90V/V230A/F327A/A334L) above, with S68R, V90M, G98A, A230V, D322A, A327F, L334A counted along it
Beta-1 adrenergic receptor M90V|Y227A|F338M, P07700 M90V Y227A F338M, sequence (P07700 whole entry M90V/Y227A/F338M): as the sequence (P07700 whole entry R68S/M90V/V230A/F327A/A334L) above, with S68R, Y227A, A230V, A327F, L334A, F338M counted along it
Beta-1 adrenergic receptor Y227A|A234L|A334L, P07700 Y227A A234L A334L, sequence (P07700 whole entry Y227A/A234L/A334L): as the sequence (P07700 whole entry R68S/M90V/V230A/F327A/A334L) above, with S68R, V90M, Y227A, A230V, A234L, A327F counted along it
Beta-1 adrenergic receptor M90V|F338M, P07700 M90V F338M, sequence (P07700 whole entry M90V/F338M): as the sequence (P07700 whole entry R68S/M90V/V230A/F327A/A334L) above, with S68R, A230V, A327F, L334A, F338M counted along it
Beta-1 adrenergic receptor R68S|A234L|A334L, P07700 R68S A234L A334L, sequence (P07700 whole entry R68S/A234L/A334L): as the sequence (P07700 whole entry R68S/M90V/V230A/F327A/A334L) above, with V90M, A230V, A234L, A327F counted along it
Beta-1 adrenergic receptor R68S|M90V|Y227A|V230A|F327A|A334L, P07700 R68S M90V Y227A V230A F327A A334L, sequence (P07700 whole entry R68S/M90V/Y227A/V230A/F327A/A334L): as the sequence (P07700 whole entry R68S/M90V/V230A/F327A/A334L) above, with Y227A counted along it
Beta-1 adrenergic receptor M90V|Y227A, P07700 M90V Y227A, sequence (P07700 whole entry M90V/Y227A): as the sequence (P07700 whole entry R68S/M90V/V230A/F327A/A334L) above, with S68R, Y227A, A230V, A327F, L334A counted along it
Beta-1 adrenergic receptor R68S|A334L, P07700 R68S A334L, sequence (P07700 whole entry R68S/A334L): as the sequence (P07700 whole entry R68S/M90V/V230A/F327A/A334L) above, with V90M, A230V, A327F counted along it
Beta-1 adrenergic receptor R68S|M90V|V230A|A334L, P07700 R68S M90V V230A A334L, sequence (P07700 whole entry R68S/M90V/V230A/A334L): as the sequence (P07700 whole entry R68S/M90V/V230A/F327A/A334L) above, with A327F counted along it

Question: Which results are given for “Beta-1 adrenergic receptor M90V|Y227A, P07700 M90V Y227A”?
Answer: Tm: 45.2 °C; change of melting temperature, mutant - wild type (higher = more stable): 13.5 °C

Question: Which results are given for “Beta-1 adrenergic receptor G67A|G98A, P07700 G67A G98A”?
Answer: Tm: 35.5 °C; change of melting temperature, mutant - wild type (higher = more stable): 3.8 °C

Question: For “Beta-1 adrenergic receptor M90V|I129V, P07700 M90V I129V”, which Tm is on record?
Answer: 40 °C

Question: What about the “change of melting temperature, mutant - wild type (higher = more stable)” value (“change of melting temperature, mutant” for short) of the same substance?
Answer: 8.3 °C

Question: With “Beta-1 adrenergic receptor R68S|A334L, P07700 R68S A334L” as the substance, how does the Tm read?
Answer: 39.1 °C

Question: And the “change of melting temperature, mutant” value?
Answer: 7.4 °C

Question: What does the source list for “Beta-1 adrenergic receptor R68S|M90V|V230A|A334L, P07700 R68S M90V V230A A334L”?
Answer: Tm: 46.9 °C; change of melting temperature, mutant - wild type (higher = more stable): 15.2 °C

Question: Which Tm does the source give for “Beta-1 adrenergic receptor R68S|M90V|Y227A|V230A|F327A|A334L, P07700 R68S M90V Y227A V230A F327A A334L” here?
Answer: 48.2 °C

Question: What about the “change of melting temperature, mutant” value of the same substance?
Answer: 16.5 °C

Question: With “Beta-1 adrenergic receptor R68S|Y227A|A234L|A334L, P07700 R68S Y227A A234L A334L” as the substance, how does the Tm read?
Answer: 43.7 °C

Question: And the “change of melting temperature, mutant” value?
Answer: 12 °C

Question: What does the source list for “Beta-1 adrenergic receptor G67A|G98A|V230A|D322A, P07700 G67A G98A V230A D322A”?
Answer: Tm: 40.9 °C; change of melting temperature, mutant - wild type (higher = more stable): 9.2 °C

Question: What does the source list for “Beta-1 adrenergic receptor R68S|M90V|Y227A|V230A|F327A|F338M, P07700 R68S M90V Y227A V230A F327A F338M”?
Answer: Tm: 49 °C; change of melting temperature, mutant - wild type (higher = more stable): 17.3 °C

Question: For “Beta-1 adrenergic receptor G98A|D322A, P07700 G98A D322A”, which Tm is on record?
Answer: 35 °C

Question: And the “change of melting temperature, mutant” value?
Answer: 3.3 °C

Question: With “Beta-1 adrenergic receptor R68S|Y227A|A234L|A282L, P07700 R68S Y227A A234L A282L” as the substance, how does the Tm read?
Answer: 41.6 °C

Question: What about the “change of melting temperature, mutant” value of the same substance?
Answer: 9.9 °C

Question: With “Beta-1 adrenergic receptor M90V|Y227A|F338M, P07700 M90V Y227A F338M” as the substance, how does the Tm read?
Answer: 45.2 °C

Question: And the “change of melting temperature, mutant” value?
Answer: 13.5 °C

Question: Which Tm does the source give for “Beta-1 adrenergic receptor M90V|F338M, P07700 M90V F338M” here?
Answer: 43 °C

Question: And the “change of melting temperature, mutant” value?
Answer: 11.3 °C

Question: With “Beta-1 adrenergic receptor Y227A|A234L|A334L, P07700 Y227A A234L A334L” as the substance, how does the Tm read?
Answer: 41.6 °C

Question: What about the “change of melting temperature, mutant” value of the same substance?
Answer: 9.9 °C

Question: What does the source list for “Beta-1 adrenergic receptor R68S|M90V|V230A|F327A|A334L, P07700 R68S M90V V230A F327A A334L”?
Answer: Tm: 47.3 °C and 48.4 °C; change of melting temperature, mutant - wild type (higher = more stable): 15.6 °C and 16.7 °C

Question: Which results are given for “Beta-1 adrenergic receptor R68S|A234L|A334L, P07700 R68S A234L A334L”?
Answer: Tm: 41.9 °C; change of melting temperature, mutant - wild type (higher = more stable): 10.2 °C

Question: What does the source list for “Beta-1 adrenergic receptor G67A|G98A|V230A, P07700 G67A G98A V230A”?
Answer: Tm: 38 °C; change of melting temperature, mutant - wild type (higher = more stable): 6.3 °C
